From article PMC10398670 (EMBO Reports, 2023)

Assays:
GST::MIRO‐1 = target: T1, GST::MIRO‐1 (C. elegans, UniProt Q94263 1-601); assay: pull-down
T1 sequence (looked up): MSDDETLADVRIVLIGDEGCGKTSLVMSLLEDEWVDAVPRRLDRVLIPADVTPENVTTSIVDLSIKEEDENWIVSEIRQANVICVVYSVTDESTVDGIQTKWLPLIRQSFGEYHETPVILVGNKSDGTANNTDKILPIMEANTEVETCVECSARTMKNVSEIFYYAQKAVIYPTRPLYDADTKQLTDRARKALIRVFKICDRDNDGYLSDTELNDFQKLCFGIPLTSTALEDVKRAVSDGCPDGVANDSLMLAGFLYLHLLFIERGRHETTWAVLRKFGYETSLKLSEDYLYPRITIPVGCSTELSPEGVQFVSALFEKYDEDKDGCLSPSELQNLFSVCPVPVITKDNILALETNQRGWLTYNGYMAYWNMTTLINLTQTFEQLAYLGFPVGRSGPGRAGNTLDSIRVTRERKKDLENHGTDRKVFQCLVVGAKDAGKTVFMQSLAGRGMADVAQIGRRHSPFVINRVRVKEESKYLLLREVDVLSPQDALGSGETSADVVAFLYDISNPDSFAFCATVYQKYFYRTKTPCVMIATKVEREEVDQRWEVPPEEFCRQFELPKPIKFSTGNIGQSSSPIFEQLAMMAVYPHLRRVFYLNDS

MIRO‐1::His = target: T2, MIRO‐1::His (C. elegans, UniProt Q94263 1-601); assay: cross-linking
T2 sequence (looked up): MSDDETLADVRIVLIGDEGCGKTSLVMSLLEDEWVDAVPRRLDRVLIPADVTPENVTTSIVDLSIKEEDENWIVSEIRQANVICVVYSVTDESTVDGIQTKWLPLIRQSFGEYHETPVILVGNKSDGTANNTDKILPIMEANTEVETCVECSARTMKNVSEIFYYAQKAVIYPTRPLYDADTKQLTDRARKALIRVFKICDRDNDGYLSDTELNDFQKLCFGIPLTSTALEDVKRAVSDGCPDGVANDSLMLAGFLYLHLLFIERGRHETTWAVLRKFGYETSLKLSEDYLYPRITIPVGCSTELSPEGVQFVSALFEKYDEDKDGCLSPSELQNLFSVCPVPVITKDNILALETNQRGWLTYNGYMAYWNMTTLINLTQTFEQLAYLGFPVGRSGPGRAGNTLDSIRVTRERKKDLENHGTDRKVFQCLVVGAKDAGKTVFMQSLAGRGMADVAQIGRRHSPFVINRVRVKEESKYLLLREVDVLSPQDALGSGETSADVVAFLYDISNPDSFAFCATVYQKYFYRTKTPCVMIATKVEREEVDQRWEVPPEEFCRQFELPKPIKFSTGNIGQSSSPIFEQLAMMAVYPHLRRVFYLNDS

binding result (GST::MIRO‐1): binds
binding result (MIRO‐1::His): binds
B1: VDAC‐1::His (natural protein, C. elegans, UniProt Q21752 1-283, looked up)
chain: MAPPTFADLGKSAKDLFNKGYNFGFLKIDSTTRAGDNKEVEFKSAASHNIGSGKLGGNLDVKYKIPQYGITLTEKWNTENQLGTVIEVNEQFGRGLKVTLDSLYAPHAGKRSGKVKLDWALPTARVTADVGVTSAPVINAAGVFSRDGWLIGAAATFDSSSNKLAATSLAFGHSTPQYTLHSFVINSTDFGASLYHKVASNVEVGTQLGWKVGGNGADYALATKYAPSRDLTVRAKVNSSSQVAVAATHSLSPALKLTLSTQFNLAANDAHKFGLGLEFDPSN
